This is an account of results in article PMC7474084.

This assay has as its target Echovirus 30 (E30) mature virion (F-particle) (Echovirus 30). Description: SPR; BIAcore T100; […]; PBS with 0.05% Tween-20, 25 °C; global fit. For orientation: In SPR one partner is held on a chip, and binding of the other changes the refractive index at the surface.

What is called Kd is the free concentration of one partner at which half of the binding sites on the other are occupied at equilibrium, for simple one-to-one binding. Higher therefore signals a looser complex. “human CD55, extracellular domain (receptor)”: the Kd is 2000 nM.
“human FcRn, extracellular domain (from UniProt P55899 24-297; P61769 21-119) (receptor)” yielded a Kd of 2000 nM.
